# Measurements reported in paper PMC9902482, “Isoform- and ligand-specific modulation of the adhesion GPCR ADGRL3/Latrophilin3 by a synthetic binder” (Nature Communications, 2023).
# B1: synthetic antibody fragment (sAB) LK30 (Fab, V domains shown)
# VH: EVQLVESGGGLVQPGGSLRLSCAASGFNIYYSSIHWVRQAPGKGLEWVAYISPYSGSTSYADSVKGRFTISADTSKNTAYLQMNSLRAEDTAVYYCARYKYGQGHMGAFDYWGQGTLVTVSS
# VL: DIQMTQSPSSLSASVGDRVTITCRASQSVSSAVAWYQQKPGKAPKLLIYSASSLYSGVPSRFSGSRSGTDFTLTISSLQPEDFATYYCQQSNTELVTFGQGTKVEIK
# notes: heavy chain (HC) of LK30 in the deposited structure PDB 8DJG; selected from synthetic phage library E on a humanized antibody Fab scaffold; light chain (LC) of LK30 in the deposited structure PDB 8DJG; Fab format (sAB) expressed from vector pRH2.2; source: E. coli BL21 (Gold), purified (protein L, Resource S ion exchange)
# B2: Lec domain of ADGRL3 (domain or fragment, human)
# chain: PIPMAVVRRELSCESYPIELRCPGTDVIMIESANYGRTDDKICDSDPAQMENIRCYLPDAYKIMSQRCNNRTQCAVVAGPDVFPDPCPGTYKYLEVQYECVPY
# modifications: biotin on the Avi-tag (BirA) in the flow cytometry experiments
# notes: ADGRL3 (Latrophilin3), human, N-terminal Lectin (Lec) domain; also called ADGRL3Lec; lectin domain of ADGRL3; source: High Five insect cells (baculovirus), secreted, purified (Ni-NTA, SEC)
# Legend:
# [1] = target: T1, Lec domain of ADGRL1 (Rattus norvegicus, UniProt O88917); assay: SPR; targets immobilised via His-tag on NTA sensor chip, sAB injected in 2-fold serial dilutions (25, 12.5, 6.25, 3.125 nM), RT, MASS-1 instrument, one-to-one Langmuir fit; conditions: both partners purified
# T1 construct: ADGRL1 (Latrophilin1), rat, Lectin (Lec) domain; In the ELISA the target was held on a neutravidin plate, so it was probably biotinylated; also called Lec domain from ADGRL1; ADGRL1 lectin domain; source: baculovirus method (all proteins); not further stated for this fragment
# [2] = target: T2, Lec domain of ADGRL3 (human, UniProt Q9HAR2, biotin on the Avi-tag (BirA) in the flow cytometry experiments); assay: as above; conditions: both partners purified
# T2 construct: ADGRL3 (Latrophilin3), human, N-terminal Lectin (Lec) domain; also called ADGRL3Lec; lectin domain of ADGRL3; source: High Five insect cells (baculovirus), secreted, purified (Ni-NTA, SEC)
# [3] = target: T3, full-length ADGRL3 expressed on HEK293T cells (human, UniProt Q9HAR2); assay: flow cytometry on cells; HEK293T cells expressing full-length receptor, increasing concentrations of LK30, 30 min at 4 °C, detected with Alexa Fluor 647 anti-human F(ab')2; apparent affinity from MFI; conditions: one partner purified
# T3 construct: ADGRL3 (Latrophilin3), human, full length; splice form +SSA (with the insert KVEQK between Lec and Olf); the receptor is autoproteolytically cleaved in the GAIN domain and the two fragments stay associated; co-transfected with GFP in the cell aggregation assay; also called Latrophilin3; ADGRL3 +SSA; source: HEK293T, transfected, on the cell surface; not shown: FLAG, N-terminal, kept
# T3 sequence (Q9HAR2 20-1447): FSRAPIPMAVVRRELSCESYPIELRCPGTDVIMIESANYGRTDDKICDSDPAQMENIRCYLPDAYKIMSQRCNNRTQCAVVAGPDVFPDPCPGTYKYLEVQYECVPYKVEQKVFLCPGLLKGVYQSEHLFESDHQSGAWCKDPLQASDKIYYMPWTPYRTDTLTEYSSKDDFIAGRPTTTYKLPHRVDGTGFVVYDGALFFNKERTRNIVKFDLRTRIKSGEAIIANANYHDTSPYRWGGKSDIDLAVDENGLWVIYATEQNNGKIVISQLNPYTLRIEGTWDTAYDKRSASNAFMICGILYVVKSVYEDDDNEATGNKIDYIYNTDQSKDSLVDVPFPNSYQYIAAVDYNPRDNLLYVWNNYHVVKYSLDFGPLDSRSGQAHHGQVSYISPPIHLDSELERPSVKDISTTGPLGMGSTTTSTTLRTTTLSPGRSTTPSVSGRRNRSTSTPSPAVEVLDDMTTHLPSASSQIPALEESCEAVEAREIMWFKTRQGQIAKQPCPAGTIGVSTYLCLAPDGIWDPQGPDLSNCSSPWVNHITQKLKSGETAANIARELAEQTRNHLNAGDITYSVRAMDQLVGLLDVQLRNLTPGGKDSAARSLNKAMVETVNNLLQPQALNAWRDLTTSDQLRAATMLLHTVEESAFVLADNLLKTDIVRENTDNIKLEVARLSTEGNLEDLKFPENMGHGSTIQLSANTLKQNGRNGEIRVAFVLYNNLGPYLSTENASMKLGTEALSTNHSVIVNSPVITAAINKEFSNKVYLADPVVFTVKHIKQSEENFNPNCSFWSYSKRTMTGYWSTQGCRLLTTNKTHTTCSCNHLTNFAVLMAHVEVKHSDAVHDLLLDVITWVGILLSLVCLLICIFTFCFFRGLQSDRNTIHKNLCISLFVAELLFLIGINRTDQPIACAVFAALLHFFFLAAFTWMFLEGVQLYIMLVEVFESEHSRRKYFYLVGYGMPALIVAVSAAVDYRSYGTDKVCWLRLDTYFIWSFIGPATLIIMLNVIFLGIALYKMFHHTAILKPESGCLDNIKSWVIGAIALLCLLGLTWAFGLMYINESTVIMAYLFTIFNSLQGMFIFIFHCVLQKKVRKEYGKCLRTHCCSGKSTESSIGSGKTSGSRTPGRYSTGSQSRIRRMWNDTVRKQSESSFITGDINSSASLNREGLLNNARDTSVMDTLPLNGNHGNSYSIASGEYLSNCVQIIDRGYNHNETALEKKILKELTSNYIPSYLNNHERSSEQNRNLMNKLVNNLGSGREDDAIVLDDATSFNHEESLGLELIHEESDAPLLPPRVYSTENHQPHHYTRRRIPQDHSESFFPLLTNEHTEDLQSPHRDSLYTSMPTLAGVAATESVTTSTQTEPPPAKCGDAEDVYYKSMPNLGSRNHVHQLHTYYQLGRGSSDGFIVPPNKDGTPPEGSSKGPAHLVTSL
# [4] = target: T4, full-length ADGRL1 expressed on HEK293T cells (Rattus norvegicus (assumed for …, UniProt O88917)); assay: as above; conditions: one partner purified
# T4 construct: ADGRL1 (Latrophilin1), full length; also called Latrophilin1; source: HEK293T, transfected, on the cell surface; not shown: FLAG, N-terminal, kept
# T4 sequence (O88917 25-1515): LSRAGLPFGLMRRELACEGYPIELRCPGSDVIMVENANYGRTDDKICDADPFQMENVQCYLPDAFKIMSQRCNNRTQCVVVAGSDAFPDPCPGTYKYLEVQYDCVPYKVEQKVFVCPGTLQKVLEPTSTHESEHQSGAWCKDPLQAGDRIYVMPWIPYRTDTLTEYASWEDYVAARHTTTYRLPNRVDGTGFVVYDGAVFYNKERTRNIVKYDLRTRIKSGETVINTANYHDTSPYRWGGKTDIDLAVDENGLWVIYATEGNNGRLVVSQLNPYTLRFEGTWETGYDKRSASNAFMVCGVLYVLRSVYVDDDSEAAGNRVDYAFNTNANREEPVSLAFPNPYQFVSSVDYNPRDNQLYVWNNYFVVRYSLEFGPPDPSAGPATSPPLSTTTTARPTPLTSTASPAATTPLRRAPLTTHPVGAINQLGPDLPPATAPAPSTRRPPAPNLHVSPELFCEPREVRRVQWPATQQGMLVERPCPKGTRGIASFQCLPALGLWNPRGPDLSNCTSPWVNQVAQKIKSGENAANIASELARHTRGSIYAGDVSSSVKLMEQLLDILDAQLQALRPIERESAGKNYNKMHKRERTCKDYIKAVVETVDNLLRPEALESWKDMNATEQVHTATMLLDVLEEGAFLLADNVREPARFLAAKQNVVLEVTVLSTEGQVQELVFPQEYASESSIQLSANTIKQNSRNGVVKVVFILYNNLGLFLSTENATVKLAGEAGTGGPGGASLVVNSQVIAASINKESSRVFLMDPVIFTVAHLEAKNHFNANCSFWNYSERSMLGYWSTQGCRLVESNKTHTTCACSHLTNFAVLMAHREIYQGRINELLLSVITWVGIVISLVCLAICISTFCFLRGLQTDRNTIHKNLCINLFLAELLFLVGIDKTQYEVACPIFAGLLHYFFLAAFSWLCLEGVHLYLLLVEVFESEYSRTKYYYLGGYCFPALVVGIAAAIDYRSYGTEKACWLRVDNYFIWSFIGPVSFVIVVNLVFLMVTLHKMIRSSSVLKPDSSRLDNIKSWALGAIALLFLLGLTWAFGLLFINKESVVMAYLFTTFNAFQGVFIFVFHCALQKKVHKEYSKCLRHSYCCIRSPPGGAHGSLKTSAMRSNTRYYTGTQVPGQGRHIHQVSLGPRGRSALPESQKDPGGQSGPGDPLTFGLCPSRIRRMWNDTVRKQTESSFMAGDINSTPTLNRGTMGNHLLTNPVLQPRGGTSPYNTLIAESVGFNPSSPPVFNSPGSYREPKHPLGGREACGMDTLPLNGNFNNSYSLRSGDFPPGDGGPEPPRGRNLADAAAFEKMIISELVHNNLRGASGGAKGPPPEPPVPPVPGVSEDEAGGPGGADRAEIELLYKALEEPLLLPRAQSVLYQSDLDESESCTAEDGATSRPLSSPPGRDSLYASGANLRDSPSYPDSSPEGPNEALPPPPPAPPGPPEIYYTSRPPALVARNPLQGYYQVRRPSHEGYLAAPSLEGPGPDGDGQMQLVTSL
# [5] = target: T2, Lec domain of ADGRL3; assay: flow cytometry on cells; competition: 5 µM ADGRL3 Lec domain pre-bound to TEN2 on HEK293T cells, increasing concentrations of LK30; row of LK30 with the Lec domain; conditions: both partners purified
# [6] = target: T3, full-length ADGRL3 expressed on HEK293T …; assay: cell-based or functional assay
# [7] = target: T5, full-length TEN2 expressed on HEK293T cells (UniProt Q9NT68 1-2774); assay: flow cytometry on cells; biotinylated ADGRL3 Lec domain titrated on HEK293T cells expressing full-length TEN2, detected with DyLight 650 neutravidin; conditions: one partner purified
# T5 construct: teneurin-2 (TEN2), full length; Co-transfected with dsRed in the cell aggregation assay; also called FL TEN2; teneurin; source: HEK293T, transfected, on the cell surface
Binder,Kd [1] [µM],Kd [2] [µM],Kd [3] [µM],Kd [4] [µM],IC50 [5] [µM],"SRE-luciferase assay in HEK293T cells transfected with ADGRL3, 1 µM LK30: fold increase over basal activity [6] [fold]","SRE-luciferase assay in HEK293T cells transfected with ADGRL3, titration of LK30: EC50 [6] [µM]",Kd [7] [µM]
B1,0.011,0.007,0.131,0.147,0.193,~2.5,0.042,
B2,,,,,,,,0.129
